The series concerns Escherichia coli TOP10. Description: shrunken log2 fold change of peptide-encoding DNA abundance (4.5 h post-induction vs induction); higher = less antimicrobial activity (less host growth inhibition). Conditions: time post-induction: 4.5 h; library: site-saturation at positions 5, 18, 19, 20.
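Further: peptides expressed intracellularly from a pBAD plasmid library in pooled LB shake-flask culture, induced with 0.3% L-arabinose, DNA abundance read by NGS, three biological replicates, DESeq2 with apeglm shrinkage.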

As to RRIRHRPPRLPRPRPRPFEVPRP, the “shrunken log2 fold change” value is -0.172.

Turning to RRIRTRPPRLPRPRPRPANMPRP, the “shrunken log2 fold change” value is -0.291.

With RRIRGRPPRLPRPRPRPMPNPRP, the “shrunken log2 fold change” value was -0.0294.

In the case of RRIRRRPPRLPRPRPRPESDPRP, the “shrunken log2 fold change” value amounted to 0.6.

Take RRIRIRPPRLPRPRPRPVPAPRP: the “shrunken log2 fold change” value stood at 0.0984.

With RRIRHRPPRLPRPRPRPMTCPRP, the “shrunken log2 fold change” value was -0.137.

For the sequence RRIRNRPPRLPRPRPRPCKWPRP, the “shrunken log2 fold change” value is -0.339.

On to RRIRLRPPRLPRPRPRPWDFPRP, for which the “shrunken log2 fold change” value was -0.00136.

On to RRIRQRPPRLPRPRPRPYCHPRP, for which the “shrunken log2 fold change” value is -0.0183.

With RRIRARPPRLPRPRPRPVAEPRP, the “shrunken log2 fold change” value came out at 0.871.

As for RRIRTRPPRLPRPRPRPHEIPRP, the “shrunken log2 fold change” value is 0.00283.

RRIRPRPPRLPRPRPRPKYTPRP: the “shrunken log2 fold change” value was -0.414.

For the sequence RRIRERPPRLPRPRPRPSPRPRP, the “shrunken log2 fold change” value worked out at 0.265.

Turning to RRIRERPPRLPRPRPRPTNCPRP, the “shrunken log2 fold change” value was -0.165.

Turning to RRIRARPPRLPRPRPRPPTMPRP, the “shrunken log2 fold change” value amounted to 0.407.

For RRIRNRPPRLPRPRPRPNMPPRP, the “shrunken log2 fold change” value is -0.407.

For the sequence RRIRLRPPRLPRPRPRPMFGPRP, the “shrunken log2 fold change” value was 0.109.

For RRIRSRPPRLPRPRPRPITVPRP, the “shrunken log2 fold change” value is -0.132.

For RRIRLRPPRLPRPRPRPLPWPRP, the “shrunken log2 fold change” value was found to be 0.334.

As to RRIRWRPPRLPRPRPRPCATPRP, the “shrunken log2 fold change” value is 0.183.

With RRIRTRPPRLPRPRPRPFHFPRP, the “shrunken log2 fold change” value was -0.303.

For the sequence RRIRWRPPRLPRPRPRPPKKPRP, the “shrunken log2 fold change” value worked out at 1.27.

Turning to RRIRDRPPRLPRPRPRPSKEPRP, the “shrunken log2 fold change” value is -0.031.

Consider RRIRCRPPRLPRPRPRPHKFPRP, for which the “shrunken log2 fold change” value was -0.742.

With RRIRVRPPRLPRPRPRPERAPRP, the “shrunken log2 fold change” value came out at 0.264.

In the case of RRIRTRPPRLPRPRPRPEDVPRP, the “shrunken log2 fold change” value was -0.0588.

Take RRIRIRPPRLPRPRPRPIQYPRP: the “shrunken log2 fold change” value is -0.251.

Consider RRIRQRPPRLPRPRPRPECHPRP, for which the “shrunken log2 fold change” value stood at 0.268.

Consider RRIRRRPPRLPRPRPRPNFYPRP, for which the “shrunken log2 fold change” value was -0.124.

Regarding RRIRKRPPRLPRPRPRPAKYPRP, the “shrunken log2 fold change” value worked out at 0.0456.

For RRIRPRPPRLPRPRPRPLDSPRP, the “shrunken log2 fold change” value is -0.0664.

With RRIRVRPPRLPRPRPRPCSRPRP, the “shrunken log2 fold change” value was -0.0712.

Turning to RRIRNRPPRLPRPRPRPYPYPRP, the “shrunken log2 fold change” value was -0.242.

In the case of RRIRRRPPRLPRPRPRPDMVPRP, the “shrunken log2 fold change” value is 0.206.

As for RRIRLRPPRLPRPRPRPKQQPRP, the “shrunken log2 fold change” value is -0.134.

On to RRIRTRPPRLPRPRPRPYIDPRP, for which the “shrunken log2 fold change” value is -0.132.

For RRIRMRPPRLPRPRPRPKEWPRP, the “shrunken log2 fold change” value is 0.0859.

Take RRIRLRPPRLPRPRPRPCERPRP: the “shrunken log2 fold change” value was -0.0471.

RRIRHRPPRLPRPRPRPHCRPRP: the “shrunken log2 fold change” value is 0.0364.

On to RRIRFRPPRLPRPRPRPYDFPRP, for which the “shrunken log2 fold change” value is -0.0848.

Turning to RRIRARPPRLPRPRPRPKDFPRP, the “shrunken log2 fold change” value was -0.0146.

In the case of RRIRLRPPRLPRPRPRPERWPRP, the “shrunken log2 fold change” value is 0.637.

Regarding RRIRPRPPRLPRPRPRPQISPRP, the “shrunken log2 fold change” value is -0.221.

In the case of RRIRYRPPRLPRPRPRPNMKPRP, the “shrunken log2 fold change” value is -0.815.

Consider RRIRLRPPRLPRPRPRPYTPPRP, for which the “shrunken log2 fold change” value is -0.484.

In the case of RRIRGRPPRLPRPRPRPDAFPRP, the “shrunken log2 fold change” value is 1.87.

As to RRIRRRPPRLPRPRPRPVSRPRP, the “shrunken log2 fold change” value is -0.0137.

Consider RRIRYRPPRLPRPRPRPEGRPRP, for which the “shrunken log2 fold change” value stood at 0.172.

In the case of RRIRNRPPRLPRPRPRPPATPRP, the “shrunken log2 fold change” value worked out at 0.615.

RRIRMRPPRLPRPRPRPVVVPRP: the “shrunken log2 fold change” value is -0.0177.

Turning to RRIRIRPPRLPRPRPRPKEHPRP, the “shrunken log2 fold change” value was -0.15.

Turning to RRIRARPPRLPRPRPRPFKHPRP, the “shrunken log2 fold change” value was -0.27.

With RRIRNRPPRLPRPRPRPLPAPRP, the “shrunken log2 fold change” value was determined as 1.07.

As to RRIRSRPPRLPRPRPRPVWRPRP, the “shrunken log2 fold change” value was 0.33.

Consider RRIRERPPRLPRPRPRPEFWPRP, for which the “shrunken log2 fold change” value turned out to be 0.159.

As to RRIRKRPPRLPRPRPRPYAIPRP, the “shrunken log2 fold change” value was found to be 0.0303.

As for RRIRMRPPRLPRPRPRPELEPRP, the “shrunken log2 fold change” value stood at 4.13.

On to RRIRNRPPRLPRPRPRPVCAPRP, for which the “shrunken log2 fold change” value was found to be 0.559.

On to RRIRDRPPRLPRPRPRPQKYPRP, for which the “shrunken log2 fold change” value is -0.432.

With RRIRQRPPRLPRPRPRPVHFPRP, the “shrunken log2 fold change” value is -0.00916.

As to RRIRYRPPRLPRPRPRPYYPPRP, the “shrunken log2 fold change” value was -0.293.

In the case of RRIRVRPPRLPRPRPRPLQLPRP, the “shrunken log2 fold change” value was -0.091.

Regarding RRIRIRPPRLPRPRPRPEFRPRP, the “shrunken log2 fold change” value stood at 0.239.

In the case of RRIRARPPRLPRPRPRPQFFPRP, the “shrunken log2 fold change” value turned out to be 0.0526.

In the case of RRIRARPPRLPRPRPRPFIQPRP, the “shrunken log2 fold change” value worked out at 0.0556.

With RRIRSRPPRLPRPRPRPTMNPRP, the “shrunken log2 fold change” value is -0.225.

On to RRIRARPPRLPRPRPRPWFVPRP, for which the “shrunken log2 fold change” value was -0.0746.

On to RRIRVRPPRLPRPRPRPCYHPRP, for which the “shrunken log2 fold change” value was -0.00421.

As for RRIRKRPPRLPRPRPRPMYEPRP, the “shrunken log2 fold change” value is -0.132.

RRIRARPPRLPRPRPRPAQYPRP: the “shrunken log2 fold change” value is 0.175.

Regarding RRIRIRPPRLPRPRPRPRHIPRP, the “shrunken log2 fold change” value was -0.19.

Consider RRIRDRPPRLPRPRPRPDKFPRP, for which the “shrunken log2 fold change” value was found to be 0.0288.

Take RRIRQRPPRLPRPRPRPYFDPRP: the “shrunken log2 fold change” value is -0.202.

In the case of RRIRLRPPRLPRPRPRPYCFPRP, the “shrunken log2 fold change” value was -0.909.

With RRIRLRPPRLPRPRPRPNDGPRP, the “shrunken log2 fold change” value is -0.127.

Turning to RRIRIRPPRLPRPRPRPDYWPRP, the “shrunken log2 fold change” value was -0.195.

For the sequence RRIRGRPPRLPRPRPRPPHRPRP, the “shrunken log2 fold change” value worked out at 0.81.

For the sequence RRIRYRPPRLPRPRPRPLEIPRP, the “shrunken log2 fold change” value was -0.00674.

For the sequence RRIRERPPRLPRPRPRPFFFPRP, the “shrunken log2 fold change” value was determined as 0.0253.

Take RRIRHRPPRLPRPRPRPTHFPRP: the “shrunken log2 fold change” value is 0.176.

RRIRRRPPRLPRPRPRPCTMPRP: the “shrunken log2 fold change” value is -0.451.

RRIRHRPPRLPRPRPRPMKYPRP: the “shrunken log2 fold change” value was -0.0485.

For RRIRQRPPRLPRPRPRPAQAPRP, the “shrunken log2 fold change” value was 0.0255.

As for RRIRQRPPRLPRPRPRPCHKPRP, the “shrunken log2 fold change” value was found to be 0.0524.

In the case of RRIRPRPPRLPRPRPRPFWSPRP, the “shrunken log2 fold change” value is -0.143.

Regarding RRIRLRPPRLPRPRPRPVTYPRP, the “shrunken log2 fold change” value was -0.0255.

As for RRIRHRPPRLPRPRPRPHTYPRP, the “shrunken log2 fold change” value was -0.79.

For RRIRCRPPRLPRPRPRPYNTPRP, the “shrunken log2 fold change” value is -0.91.

Take RRIRPRPPRLPRPRPRPRTQPRP: the “shrunken log2 fold change” value stood at 0.223.

For RRIRMRPPRLPRPRPRPWYHPRP, the “shrunken log2 fold change” value was -0.00277.

RRIRIRPPRLPRPRPRPSWWPRP: the “shrunken log2 fold change” value was -0.059.
